From US20260284139 (published 2026)
Read-outs that look alike come from different tables or passages of the source. Where no end group is shown, it is not given here. [ ]: non-standard residue; d: D form. The star is where a group is joined. Octanoyl = CCCCCCCC(=O)*

T1: β-catenin (full-length recombinant) (human, UniProt P35222)
T1 chain: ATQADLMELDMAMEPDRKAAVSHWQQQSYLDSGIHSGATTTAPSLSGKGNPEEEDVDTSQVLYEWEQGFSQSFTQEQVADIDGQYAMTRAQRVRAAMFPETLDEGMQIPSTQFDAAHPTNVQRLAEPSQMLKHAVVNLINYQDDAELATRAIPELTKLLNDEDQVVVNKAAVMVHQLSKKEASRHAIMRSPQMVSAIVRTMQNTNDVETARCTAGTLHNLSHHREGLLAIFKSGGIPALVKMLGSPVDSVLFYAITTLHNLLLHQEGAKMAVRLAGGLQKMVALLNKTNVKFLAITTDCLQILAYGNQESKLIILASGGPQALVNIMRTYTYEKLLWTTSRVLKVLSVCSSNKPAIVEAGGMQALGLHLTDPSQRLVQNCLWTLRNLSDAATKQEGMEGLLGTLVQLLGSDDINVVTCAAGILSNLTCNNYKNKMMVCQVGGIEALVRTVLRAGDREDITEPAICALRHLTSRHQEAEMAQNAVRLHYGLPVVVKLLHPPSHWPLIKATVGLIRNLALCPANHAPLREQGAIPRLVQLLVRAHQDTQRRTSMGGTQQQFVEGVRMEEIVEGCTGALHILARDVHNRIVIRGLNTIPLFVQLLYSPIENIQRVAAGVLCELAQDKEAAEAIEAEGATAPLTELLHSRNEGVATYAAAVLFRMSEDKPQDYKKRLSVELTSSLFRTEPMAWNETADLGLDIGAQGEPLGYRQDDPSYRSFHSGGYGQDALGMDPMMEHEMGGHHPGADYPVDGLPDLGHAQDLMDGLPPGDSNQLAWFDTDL

B1: ST316 (peptide)
chain: Octanoyl-[dF][dR][dW][dL][dL][dR][dQ][dL][dA][dR][dL][dA][dQ][dL][dA][dK][dL][dT][dP][dV][dK][dL][dT][dP][dV]
modifications: also: FITC conjugate used in the FP assay
B2: BCL9 (protein)
chain: MHSSNPKVRSSPSGNTQSSPKSKQEVMVRPPTVMSPSGNPQLDSKFSNQGKQGGSASQSQPSPCDSKSGGHTPKALPGPGGSMGLKNGAGNGAKGKGKRERSISADSFDQRDPGTPNDDSDIKECNSADHIKSQDSQHTPHSMTPSNATAPRSSTPSHGQTTATEPTPAQKTPAKVVYVFSTEMANKAAEAVLKGQVETIVSFHIQNISNNKTERSTAPLNTQISALRNDPKPLPQQPPAPANQDQNSSQNTRLQPTPPIPAPAPKPAAPPRPLDRESPGVENKLIPSVGSPASSTPLPPDGTGPNSTPNNRAVTPVSQGSNSSSADPKAPPPPPVSSGEPPTLGENPDGLSQEQLEHRERSLQTLRDIQRMLFPDEKEFTGAQSGGPQQNPGVLDGPQKKPEGPIQAMMAQSQSLGKGPGPRTDVGAPFGPQGHRDVPFSPDEMVPPSMNSQSGTIGPDHLDHMTPEQIAWLKLQQEFYEEKRRKQEQVVVQQCSLQDMMVHQHGPRGVVRGPPPPYQMTPSEGWAPGGTEPFSDGINMPHSLPPRGMAPHPNMPGSQMRLPGFAGMINSEMEGPNVPNPASRPGLSGVSWPDDVPKIPDGRNFPPGQGIFSGPGRGERFPNPQGLSEEMFQQQLAEKQLGLPPGMAMEGIRPSMEMNRMIPGSQRHMEPGNNPIFPRIPVEGPLSPSRGDFPKGIPPQMGPGRELEFGMVPSGMKGDVNLNVNMGSNSQMIPQKMREAGAGPEEMLKLRPGGSDMLPAQQKMVPLPFGEHPQQEYGMGPRPFLPMSQGPGSNSGLRNLREPIGPDQRTNSRLSHMPPLPLNPSSNPTSLNTAPPVQRGLGRKPLDISVAGSQVHSPGINPLKSPTMHQVQSPMLGSPSGNLKSPQTPSQLAGMLAGPAAAASIKSPPVLGSAAASPVHLKSPSLPAPSPGWTSSPKPPLQSPGIPPNHKAPLTMASPAMLGNVESGGPPPPTASQPASVNIPGSLPSSTPYTMPPEPTLSQNPLSIMMSRMSKFAMPSSTPLYHDAIKTVASSDDDSPPARSPNLPSMNNMPGMGINTQNPRISGPNPVVPMPTLSPMGMTQPLSHSNQMPSPNAVGPNIPPHGVPMGPGLMSHNPIMGHGSQEPPMVPQGRMGFPQGFPPVQSPPQQVPFPHNGPSGGQGSFPGGMGFPGEGPLGRPSNLPQSSADAALCKPGGPGGPDSFTVLGNSMPSVFTDPDLQEVIRPGATGIPEFDLSRIIPSEKPSQTLQYFPRGEVPGRKQPQGPGPGFSHMQGMMGEQAPRMGLALPGMGGPGPVGTPDIPLGTAPSMPGHNPMRPPAFLQQGMMGPHHRMMSPAQSTMPGQPTLMSNPAAAVGMIPGKDRGPAGLYTHPGPVGSPGMMMSMQGMMGPQQNIMIPPQMRPRGMAADVGMGGFSQGPGNPGNMMF

Assays:
[1] = molecular target: T1, β-catenin (full-length recombinant); assay: FP, room temperature
[2] = molecular target: T1, β-catenin (full-length recombinant); assay: competition, ALPHA assay vs BCL9 HD2 peptide, pH 6.5
[3] = molecular target: T1, β-catenin (full-length recombinant)

Binder | Kd [1] | IC50 [2] | Kd [3]
B1 | ~126 nM | ~1000 nM | 
B2 |  |  | ~200 nM
